Laboratory results from patent US20110257371A1 (Teva, published 2011).
Where no end group is shown, it is not given here. The star is where a group is joined. Biotin = O=C1N[C@H]2[C@H](CS[C@H]2CCCCC(=O)*)N1

T1: V32A
T1 sequence (peptide, N-terminal biotin (p-0192)): NNFVPTNAGSKAF

T2: K35A
T2 sequence (peptide, N-terminal biotin (p-0192)): NNFVPTNVGSAAF

T3: S34A
T3 sequence (peptide, N-terminal biotin (p-0192)): NNFVPTNVGAKAF

T4: F37A (ends and bridges not checked)
T4 peptide: Biotin-NNFVPTNVGSKAA

T5: G33A (ends and bridges not checked)
T5 peptide: Biotin-NNFVPTNVASKAF

T6: human α-CGRP (human, not fully specified; C-terminal amide (CONH2) as printed; N-biotinylated in the Biacore assays)
T6 construct: Full-length 37-residue peptide; also called α-Hu; α-human
T6 peptide: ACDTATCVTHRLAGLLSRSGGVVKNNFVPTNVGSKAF

T7: rat α-CGRP (rat, not fully specified; C-terminal amide (CONH2) as printed; N-biotinylated in the Biacore assays)
T7 construct: also called α-Rat; α-rat
T7 peptide: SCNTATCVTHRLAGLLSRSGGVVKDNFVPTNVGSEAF

T8: human β-CGRP (human, not fully specified; C-terminal amide (CONH2) as printed; N-biotin on chip)
T8 construct: also called β-human
T8 peptide: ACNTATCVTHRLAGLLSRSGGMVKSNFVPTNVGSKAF

T9: rat β-CGRP (rat, not fully specified; C-terminal amide (CONH2) as printed; N-biotin on chip)
T9 construct: also called β-rat
T9 peptide: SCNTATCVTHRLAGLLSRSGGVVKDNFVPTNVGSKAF


Assays:
V32A = molecular target: T1, V32A; assay: Biacore alanine scan, 25 °C, N-biotinylated fragment on SA chip, G1 Fab titrated; against the wild-type 25-37 fragment
K35A = molecular target: T2, K35A; assay: as above
S34A = molecular target: T3, S34A; assay: as above
F37A = molecular target: T4, F37A; assay: as above
Description: (§1) Interaction analysis was conducted at 25° C. on a Biacore 3000™ system equipped with streptavidin-coated (SA) sensor chips (Biacore AB, Uppsala, Sweden) using a standard Biacore running buffer (HBS-P). […] Each amino acid between position 27-37 was then mutated individually to alanine and expressed the fold loss in affinity compared to the wild-type fragment. […] Fab fragments were titrated over the chip using 1 μM as the top concentration of a two-fold dilution series. Association and dissociation phases were monitored at 100 μl/min for 1 minute and 5 minutes respectively. Surfaces were regenerated with a mixture of 35% ethanol+25mM NaOH+0.5M NaCl.

G33A = molecular target: T5, G33A; assay: as above
Description: as §1

human α-CGRP [1] = molecular target: T6, human α-CGRP; assay: Biacore, ratio of KD at 25 C, reference rat α-CGRP
human α-CGRP [2] = molecular target: T6, human α-CGRP; assay: Biacore, N-biotin-CGRP on chip, 25 C
rat α-CGRP [3] = molecular target: T7, rat α-CGRP; assay: Biacore, N-biotin-CGRP on chip, 25 C
human α-CGRP [4] = molecular target: T6, human α-CGRP; assay: Biacore, N-biotin-CGRP on chip, 37 C
rat α-CGRP [5] = molecular target: T7, rat α-CGRP; assay: Biacore, N-biotin-CGRP on chip, 37 C
human β-CGRP = molecular target: T8, human β-CGRP; assay: Biacore, N-biotin-CGRP on chip, 37 C
rat β-CGRP = molecular target: T9, rat β-CGRP; assay: Biacore, N-biotin-CGRP on chip, 37 C

Binder	Fold loss in affinity (V32A)	Fold loss in affinity (K35A)	Fold loss in affinity (S34A)	Fold loss in affinity (F37A)	Fold loss in affinity (G33A)	fold more potent than for rat α-CGRP (human α-CGRP [1])	T1/2 (human α-CGRP [2])	T1/2 (rat α-CGRP [3])	T1/2 (human α-CGRP [4])	T1/2 (rat α-CGRP [5])	T1/2 (human β-CGRP)	T1/2 (rat β-CGRP)
Fab fragment of antibody G1 (Fab, V domains shown, also called Purified Fab fragments of antibody G1) VH: EVQLVESGGGLVQPGGSLRLSCAASGFTFSNYWISWVRQAPGKGLEWVAEIRSESDASATHYAEAVKGRFTISRDNAKNSLYLQMNSLRAEDTAVYYCLAYFDYGLAIQNYWGQGTLVTVSS VL: EIVLTQSPATLSLSPGERATLSCKASKRVTTYVSWYQQKPGQAPRLLIYGASNRYLGIPARFSGSGSGTDFTLTISSLEPEDFAVYYCSQSYNYPYTFGQGTKLEIK	6.1 fold	8.1 fold	10.9 fold	339 fold	504 fold							
antibody G1 (antibody, human IgG2, kappa, V domains shown, Humanized IgG2 delta-a monoclonal derived from muMAb7E9; heavy chain entry includes the modified IgG2 constant region; also called anti-CGRP antibody G1) VH: EVQLVESGGGLVQPGGSLRLSCAASGFTFSNYWISWVRQAPGKGLEWVAEIRSESDASATHYAEAVKGRFTISRDNAKNSLYLQMNSLRAEDTAVYYCLAYFDYGLAIQNYWGQGTLVTVSS VL: EIVLTQSPATLSLSPGERATLSCKASKRVTTYVSWYQQKPGQAPRLLIYGASNRYLGIPARFSGSGSGTDFTLTISSLEPEDFAVYYCSQSYNYPYTFGQGTKLEIKR						40 fold	24.7 h	3.12 h	5.3 h	0.48 h	2.76 h	2.45 h
